The target in assay [1] is T1, human CCR9 (C-C chemokine receptor type 9) (human, UniProt P51686 1-369).
T1 construct: also called huCCR9; hCCR9
T1 sequence: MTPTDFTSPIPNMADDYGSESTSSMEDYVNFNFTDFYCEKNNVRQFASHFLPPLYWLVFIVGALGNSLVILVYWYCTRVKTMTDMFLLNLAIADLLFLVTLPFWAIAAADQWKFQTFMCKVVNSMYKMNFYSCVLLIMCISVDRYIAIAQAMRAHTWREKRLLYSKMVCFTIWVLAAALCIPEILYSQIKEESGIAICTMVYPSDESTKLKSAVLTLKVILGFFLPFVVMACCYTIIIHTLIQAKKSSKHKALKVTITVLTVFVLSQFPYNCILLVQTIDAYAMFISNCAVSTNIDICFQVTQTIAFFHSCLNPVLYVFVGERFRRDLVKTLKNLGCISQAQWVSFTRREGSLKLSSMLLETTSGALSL
Put plainly: flow cytometry on MOLT-4 cells, unlabeled antibody, n=1. (In general: Flow cytometry measures light scatter and fluorescence of single cells or particles in a stream.)

In assay [2] the target is T1, human CCR9 (C-C chemokine receptor type …). Briefly: flow cytometry on huCCR9-expressing HEK293 cells, PE anti-human Fc, mean ± SD, n=3.
Assay [3] deals with T2, CCR9 N-terminal peptide 1 (TPTDFTSPIPNMADDYGSESTSS) (human, biotinylated in the ELISA of Example 2 (site not stated)).
T2 construct: Biotin is stated for the ELISA; also called N-terminal 1; biotinylated peptide from the N-terminal region of huCCR9
T2 peptide: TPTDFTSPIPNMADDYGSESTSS
Briefly: ELISA, plate coated with biotinylated CCR9 N-terminal peptide 1, anti-human Fc detection, n=2.

Assay [4] addresses T3, N-terminal 6 (SPIPNMADDYG) (human).
T3 construct: also called peptide N-terminal 6
T3 peptide: SPIPNMADDYG
Briefly: peptide inhibition: 1 µg/mL antibody pre-incubated with 100 µg/mL peptide, then binding to MOLT-4 cells by flow cytometry.

For assay [5], the target named is T1, human CCR9 (C-C chemokine receptor type …). Briefly: flow cytometry on MOLT-4 cells; antibody kept 4 days at 4°C (control).
Assay [6] shares this target. Put plainly: flow cytometry on MOLT-4 cells; antibody incubated 4 days at 23°C.
Assay [7] shares this target. Briefly: flow cytometry on CCR9-expressing MOLT-4 cells, PE anti-human Fc, mean ± SD, n=3.
Assay [8] has the same target. Briefly: cell-based or functional assay.
Assay [9] shares this target. Briefly: flow cytometry on MOLT-4 cells; antibody incubated 4 days at 40°C.
Assay [10] shares this target. Put plainly: flow cytometry on MOLT-4 cells, pHrodo-labeled antibody, n=1.
The target is the same in assay [11]. Briefly: screen of murine hybridoma antibodies for affinity to CCR9 (ELISA, then flow cytometry); format not detailed. On the technique in general: An ELISA detects its analyte on a solid surface through an enzyme-linked reagent.
For assay [12], the target named is T4, hCCR9 peptide D16A-Y17A (human).
T4 peptide: TDFTSPIPNMADAAGSEST
Put plainly: 2 x Ala-scan with substituted hCCR9 peptides (Fig. 9A).

The target in assay [13] is T5, hCCR9 peptide N12A-M13A (human).
T5 peptide: TDFTSPIPAAADDYGSEST
The assay is described as above.

For assay [14], the target named is T6, hCCR9 peptide M13A-A14G (human).
T6 peptide: TDFTSPIPNAGDDYGSEST
The description is as above.

For assay [15], the target named is T7, hCCR9 peptide P11A-N12A (human).
T7 peptide: TDFTSPIAAMADDYGSEST
The assay is described as above.

The target in assay [16] is T8, hCCR9 peptide D15A-D16A (human).
T8 peptide: TDFTSPIPNMAAAYGSEST
The assay is described as above.

Assay [17] deals with T4, hCCR9 peptide D16A-Y17A. Put plainly: 2 x Ala-scan with substituted hCCR9 peptides (Fig. 9B).
The target in assay [18] is T5, hCCR9 peptide N12A-M13A. The description is as above.
For assay [19], the target named is T6, hCCR9 peptide M13A-A14G. The assay is described as above.
The target in assay [20] is T7, hCCR9 peptide P11A-N12A. Described as above.
Assay [21] has as its target T8, hCCR9 peptide D15A-D16A. The description is as above.

Residue numbers refer to the chain shown, from its start.

The text below walks through data of EP4578874A1 (SunRock Biopharma S.L., dated 2025).

B1: huC9Mab-16-VL2 (antibody, V domains shown)
VH: EVQLVESGGGLVKPGGSLRLSCAASGFTFSDYWMNWVRQAPGKGLEWVGEIRSKSKNYATHYEESVRGRFTISRDDSKNTLYLQMNSLKTEDTAVYYCMFFYSPYWGQGTLVTVSS
VL: DVVMTQSPSSLSASVGDRVTITCRSSQSLVHSNGITFLHWYQQKPGKAPKLLIYKVSNRFSGVPSRFSGSGSGTDFTLTISSLQPEDFATYYCSQTTHVPWTFGGGTKVEIK
notes: Humanized IgG made in HEK293-6E cells
For orientation: EC50 means the concentration at which the effect is half-maximal. A higher EC50 goes with a need for much substance. B1: the concentration for a half-maximal effect (EC50) in assay [1] came out at 0.27 nM; in [2] it was 0.1 nM; in assay [3], 0.546 nM; in assay [5], 0.4 nM; in [6], 0.4 nM; in assay [7], 0.24 nM. In addition, in [9], the EC50 is 0.25 nM. In addition, in assay [4], the binding result was “binds”. Further, the “EC50 of cytotoxicity (ADCC, specific lysis of CFSE-stained MOLT-4 cells), PBMC batch HN#1” value (“EC50 of cytotoxicity … PBMC batch HN#1” below) in assay [8] was 5 pM. Moreover, the “EC50 of cytotoxicity (ADCC, specific lysis of CFSE-stained MOLT-4 cells), PBMC batch HN#2” value (“EC50 of cytotoxicity … PBMC batch HN#2” below) in [8] turned out to be 0.01 nM.

B2: huC9Mab16-VL2 pHrodo (antibody, V domains shown)
VH: B1 VH
VL: B1 VL
modifications: pHrodo fluorophore label (sites not given)
notes: also called pHrodo-labeled huC9Mab16-VL2
Regarding B2, the response in assay [10] was half-maximal at 0.51 nM (EC50).

B3: huC9Mab-19-VL2 (antibody, V domains shown)
VH: B1 VH with D31N, N35D, K56N, E63A, V66M, R67K, M99A, F101Y
VL: B1 VL with V30L, I35N, V99L
notes: as for B1
With B3, the EC50 in [1] turned out to be 0.6 nM; in assay [2] it was 0.92 nM; in assay [3], 14.1 nM; in assay [5] it was 1.86 nM; in [6] it was 2.04 nM; in assay [7], 0.59 nM. The EC50 in [9] worked out at 2 nM. Also, the binding result in assay [4] is reported as “binds”. Moreover, the “EC50 of cytotoxicity … PBMC batch HN#1” value in [8] was 230 pM. Moreover, in assay [8], the “EC50 of cytotoxicity … PBMC batch HN#2” value was 0.06 nM.

B4: huC9Mab19-VL2 pHrodo (antibody, V domains shown)
VH: B1 VH with D31N, N35D, K56N, E63A, V66M, R67K, M99A, F101Y
VL: B1 VL with V30L, I35N, V99L
modifications: pHrodo fluorophore label (sites not given)
notes: also called pHrodo-labeled huC9Mab19-VL2
With B4, in assay [10], the EC50 is 2.05 nM.

B5: SRB1 (antibody, V domains shown)
VH: EVQLVESGGGLVKPGGSLRLSCAASGFTFSKFWMNWVRQAPGKGLEWVGEIRLKSNNYATHYAESVKGRFTISRDDSKNTLYLQMNSLKTEDTAVYYCTSDGWFAYWGQGTLVTVSS
VL: DVQMTQSPSSLSASVGDRVTITCRSSQSLVHSNGNTYLNWYQQKPGKAPKLLIYKVSNRFSGVPSRFSGSGSGTDFTLTISSLQPEDFATYYCSQSTHFPRTFGGGTKVEIKR
notes: Detected with anti-human Fc, so it has a human Fc; also called humanised version of the antibody 92R; positive control
For the molecule B5, the EC50 came to 0.07 nM in assay [1]; 0.04 nM in assay [2]; 19.2 nM in assay [3]; 0.05 nM in [5]; 0.02 nM in assay [6]; 0.04 nM in assay [7]. The molecule also came in with a concentration giving a half-maximal response (EC50) in [9] of 0.05 nM. The “EC50 of cytotoxicity … PBMC batch HN#1” value in assay [8] is 0.8 pM. Moreover, the “EC50 of cytotoxicity … PBMC batch HN#2” value in [8] turned out to be 0.003 nM.

B6: SRB1 pHrodo (antibody, V domains shown)
VH: B5 VH
VL: B5 VL
modifications: pHrodo fluorophore label (sites not given)
notes: also called pHrodo-labeled SRB1
B6 registered a 50% effective concentration (EC50) in assay [10] of 0.08 nM.

B7: IAb01 (antibody, V domains shown)
VH: EVKVEESGGGLVQPGGSMKLSCVVSGLTFSNFWMTWVRQSPEKGLEWVAEIRLKSNNYATHYAESVKGRFTISRDDSRSSVFLQMNNLRAEDTGIYYCTTDGWFAFWGQGTLVTVSA
VL: QIVLTQSPTIMSASPGEKVTITCSASSSVSYMHWFQQKPGTSPKLWIYSTSNLASGVPARFSGSGSGTSYSLTISRMEAEDAATYYCQQRSSYPFTFGSGTKLEIKR
notes: Murine antibody
B7: in [11], the binding result was “binds”.

B8: IAb02 (antibody, V domains shown)
VH: B7 VH with V23A, V24A, L27F, T28I, T35N, V48I, R78K, F82Y, T99A
VL: DVVMTQTPLSLPVSLGDQASISCRSSQSLVHSNGNTYLQWHLQKPGQSPKFLIYKVSNRFSGVPDRFSGSGSGTDFTLKISRVEAEDLGVYFCSQSTHVPRTFGGGTKLEIKR
notes: Murine antibody
B8: the binding result in [11] is on record as “binds”.

B9: C9Mab-16 (antibody, V domains shown)
VH: EVKLEESGGGLVLPGGSMKLSCVASGFTFSDYWMNWVRQSPEKGLEWVAEIRSKSKNYATHYEESVRGRCTISRDDSKSSVYLQMNNLRAEDTGIYFCMFFYSPYWGQGTLVTVSA
VL: B8 VL with N35I, Y37F, Q39H, H41Y, F51L, S96T, R101W
notes: Murine parental antibody from hybridoma; also called C9M16; clone 16
Turning to B9, the binding result in assay [12], in assay [13], in [14], in assay [15] and in assay [16] was “no binding” in each case.

B10: C9Mab-19 (antibody, V domains shown)
VH: EVKLEESGGGLVQPGGSMKLSCVASGFTFSNYWMDWVRQSPEKGLEWVAEIRSKSNNYATHYAESMKGRFTISRDDSKSSVYLQMINLRTEDTGIYYCAFYYSPYWGQGTLVTVSA
VL: B8 VL with V30L, Y37F, Q39H, H41Y, F51L, I80V, S96T, V99L, R101W
notes: Murine parental antibody from hybridoma; also called C9M19; clone 19
With B10, the binding result in [17], in [18], in assay [19], in assay [20] and in assay [21] was “no binding” in each case.
